Data set [1] has as its target T1, MutS-IAANS (MutS-C42A/M88C) (Thermus aquaticus (printed as T. …, UniProt Q56215 1-811, C42A;M88C)).
T1 sequence: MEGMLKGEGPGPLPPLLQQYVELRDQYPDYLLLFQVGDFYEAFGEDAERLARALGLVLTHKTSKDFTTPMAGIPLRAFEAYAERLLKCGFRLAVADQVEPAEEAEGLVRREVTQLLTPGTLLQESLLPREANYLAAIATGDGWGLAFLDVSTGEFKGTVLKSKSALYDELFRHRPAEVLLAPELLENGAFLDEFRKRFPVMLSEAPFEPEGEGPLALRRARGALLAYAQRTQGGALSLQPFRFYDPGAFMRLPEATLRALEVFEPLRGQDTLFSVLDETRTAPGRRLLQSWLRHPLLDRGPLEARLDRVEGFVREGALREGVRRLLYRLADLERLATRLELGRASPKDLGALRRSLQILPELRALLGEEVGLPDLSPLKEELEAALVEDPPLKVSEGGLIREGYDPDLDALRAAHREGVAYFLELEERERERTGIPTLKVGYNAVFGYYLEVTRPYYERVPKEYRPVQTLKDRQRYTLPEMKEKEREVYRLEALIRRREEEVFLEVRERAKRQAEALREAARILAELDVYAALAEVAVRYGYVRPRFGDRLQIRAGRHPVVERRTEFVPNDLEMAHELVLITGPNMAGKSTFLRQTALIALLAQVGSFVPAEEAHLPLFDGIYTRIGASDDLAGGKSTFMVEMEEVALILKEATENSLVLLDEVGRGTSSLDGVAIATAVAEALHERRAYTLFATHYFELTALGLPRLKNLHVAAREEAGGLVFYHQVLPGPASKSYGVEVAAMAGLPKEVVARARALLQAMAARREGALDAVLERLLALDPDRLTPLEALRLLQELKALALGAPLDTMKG
Nature of the data set: stopped-flow IAANS fluorescence.

In data set [2] the target is T1, MutS-IAANS (MutS-C42A/M88C). The experiment in a line: IAANS fluorescence quenching, equilibrium.
Data set [3] addresses T2, MutS-F39A-IAANS (Thermus aquaticus (printed as T. …, UniProt Q56215 1-811, F39A;C42A;M88C)).
T2 sequence: T1 sequence with F39A
Nature of the data set: IAANS fluorescence quenching, equilibrium and stopped-flow.

Data set [4] addresses T3, MutS (wild type) (Thermus aquaticus (printed as T. …, UniProt Q56215 1-811)).
T3 sequence: T1 sequence with A42C, C88M
Nature of the data set: stopped-flow fluorescence anisotropy.

Data set [5] deals with T3, MutS (wild type). Nature of the data set: fluorescence anisotropy, equilibrium. For orientation: In fluorescence polarisation assays a small probe gives low polarisation when free and higher when bound to something large.
For data set [6], the target named is T4, MutS-F39A (Thermus aquaticus (printed as T. …, UniProt Q56215 1-811, F39A)).
T4 sequence: T1 sequence with F39A, A42C, C88M
Nature of the data set: fluorescence anisotropy, equilibrium.

Changes are numbered by the printed parent chain.

B1: DNA(+T) (dsDNA)
DNA 1: ATGTGAATCAGTATGGTATATATCTGCTGAAGGAAAT
DNA 2: ATTTCCTTCAGCAGATATTACCATACTGATTCACAT
The term Kd denotes a measure of binding affinity in units of concentration. Low readings indicate higher affinity, high ones lower affinity. In the case of B1, in data set [1], the “apparent K (half saturation)” value turned out to be 2300 ± 700 nM. In data set [2], this molecule came in with a Kd of 22 ± 4 nM. Also, the binding result in data set [3] is “no binding”.

B2: DNA(+T)TAMRA (dsDNA)
DNA 1: B1 DNA 1
DNA 2: B1 DNA 2
modifications: 3' amino linker
B2: the “apparent K (half saturation)” value in data set [4] came to 5 ± 2 µM. This molecule returned a Kd in data set [5] of 13 ± 2 nM. The binding result in data set [6] is “no binding”.

The record behind these values is publication PMC3812353.
